Measurements published in patent US11278600B2, “Human alpha-galactosidase variants” (Codexis, Inc., priority 2014, dated 2022).
Numbering of substitutions follows the chain as printed.

B1: 288 (protein)
chain: LDNGLARTPTMGWLHWERFMCNLDCQEEPDSCISEKLFMEMAERMVSEGWKDAGYEYLCIDDCWMAPQRDSEGRLQADPQRFPHGIRQLANYVHSIGLKLGIYADVGNKTCAGFPGSFGYYDIDAQTFADWGVDLLKFDGCYCDSLENLADGYKHMSLALNRTGRSIVYSCEWPLYMWPFQKPNYTEIRQYCNHWRNFADIDDSWASIKSILDWTSRNQERIVDVAGPGGWNDPDMLVIGNFGLSWDQQVTQMALWAIMAAPLFMSNDLRHISPQAKALLQDKDVIAINQDPLGKQGYQLRKGDNFEVWERPLSGLAWAVAMINRQEIGGPRSYTIPVASLGKGVACNPGCFITQLLPVKRKLGFYDWDSRLRSHINPTGTVLLQLENTMQMSLKDLL
modifications: Synthetic Polypeptide sequence of Variant No. 288 of mature Human GLA
B2: 290 (protein)
chain: B1 chain with R217F, K302Q, L316D
modifications: Synthetic Polypeptide sequence of Variant No. 290 of mature Human GLA
B3: 284 (protein)
chain: LDNGLARTPTMGWLHWERFMCNLDCQEEPDSCISEKLFMEMAERMVSEGWKDAGYEYLCIDDCWMAPQRDSEGRLQADPQRFPHGIRQLANYVHSKGLKLGIYADVGNKTCAGFPGSFGYYDIDAQTFADWGVDLLKFDGCYCDSLENLADGYKHMSLALNRTGRSIVYSCEWPLYMWPFQKPNYTEIRQYCNHWRNFADIDDSWASIKSILDWTSFNQETIVDVAGPGGWNDPDMLVIGNFGLSWDQQVTQMALWAIMAAPLFMSNDLRHISPQAKALLQDKDVIAINQDPLGKQGYQLRQGDNFEVWERPLSGLAWAVAIINRQEIGGPRSYTIAVASLGDGVACNPACFITQLLPVKRKLGLYEWTSRLRSHVNPTGTVLLQLENTMQMSLKDLL
modifications: Synthetic Polypeptide sequence of Variant No. 284 of mature Human GLA
B4: 295 (protein)
chain: B3 chain with L100F, I208V, Q302K, D343K, R373K
modifications: Synthetic Polypeptide sequence of Variant No. 295 of mature Human GLA
B5: 293 (protein)
chain: B3 chain with L100F, I208V, T221K, Q302K, I322V, D343K
modifications: Synthetic Polypeptide sequence of Variant No. 293 of mature Human GLA
B6: 294 (protein)
chain: B3 chain with L100F, I208V, I322V, D343K, L365F
modifications: Synthetic Polypeptide sequence of Variant No. 294 of mature Human GLA
B7: 292 (protein)
chain: B3 chain with L100F, I208V, Q219H, T221R, Q302K, I322V, D343K, L365F, R373K
modifications: Synthetic Polypeptide sequence of Variant No. 292 of mature Human GLA
B8: 291 (protein)
chain: B3 chain with L100F, T221R, D247N, I322M, D343K, V376I
modifications: Synthetic Polypeptide sequence of Variant No. 291 of mature Human GLA
B9: 285 (protein)
chain: B1 chain with R217F, D247N, K302Q, P337A, G350A, D367E, D369T
modifications: Synthetic Polypeptide sequence of Variant No. 285 of mature Human GLA
B10: 287 (protein)
chain: B1 chain with I96K, D367E, D369T
modifications: Synthetic Polypeptide sequence of Variant No. 287 of mature Human GLA
B11: 289 (protein)
chain: B1 chain with D247N, P337A, D367E, D369T
modifications: Synthetic Polypeptide sequence of Variant No. 289 of mature Human GLA
B12: 286 (protein)
chain: B1 chain with K302Q, P337A, G350A, D367E, D369T
modifications: Synthetic Polypeptide sequence of Variant No. 286 of mature Human GLA

Assays:
Assay type in all cases: biochemical
[1] = HTP-analysis of yeast culture supernatants, no challenge (MUGal hydrolysis); settings: activity of the variant/activity of Rd2BB (SEQ ID NO: 10), yeast culture supernatant
In short: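 Activity read as 4-methylumbelliferyl α-D-galactopyranoside hydrolysis: fluorescence (355/448 nm) after sodium carbonate stop, following 30-180 min at 37° C with 2 mM MUGal stock at pH 4.6–4.8. Enzyme source is unchallenged culture supernatant of INVSc1 yeast expressing GLA variants, grown 66-84 h at 30° C.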

[2] = HTP-analysis of supernatants pretreated with acid (MUGal hydrolysis); settings: challenge at pH 4.2; activity of the variant/activity of Rd2BB (SEQ ID NO: 10); yeast culture supernatant
In short: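 Supernatants from INVSc1 yeast secreting GLA variants were challenged at 37° C. for 1-3 h in McIlvaine buffer at pH 3.3-4.3. Residual activity was then measured on 4 mM MUGal substrate stock at pH 4.8 with citrate buffer pH 4.3, over 30-180 min at 37° C. Reactions were quenched with sodium carbonate and read by fluorescence (Ex 355/Em 448 nm).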

[3] = HTP-analysis of supernatants pretreated with base (MUGal hydrolysis); settings: challenge at pH 7.6; activity of the variant/activity of Rd2BB (SEQ ID NO: 10); yeast culture supernatant
In short: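 GLA variants were secreted by transformed INVSc1 yeast grown 66-84 h at 30° C. Supernatants were exposed to neutral-to-basic buffers (pH 7.0-9.7) at 37° C for 1-18 h, then assayed with MUGal in acidic citrate/McIlvaine buffer, with fluorescence read after quenching.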

[4] = HTP-analysis of supernatants pretreated with bovine serum (MUGal hydrolysis); settings: activity of the variant/activity of Rd2BB (SEQ ID NO: 10), yeast culture supernatant
In short: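 Yeast INVSc1 culture supernatants containing secreted GLA variants were mixed with bovine serum (20:80) and held 1 h at 37° C. Serum-treated samples then reacted with MUGal (4 mM stock) in citrate/McIlvaine buffer (pH 4.3/4.8) for 180 min at 37° C., were quenched with sodium carbonate, and read by fluorescence (Ex 355, Em 448 nm).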

Row | Molecule | Relative Activity of GLA Variants After No Challenge (NC) [1] | Relative Activity of GLA Variants After Challenge at pH 4.2 [2] | Relative Activity of GLA Variants After Challenge at pH 7.6 [3] | Relative Activity of GLA Variants After Challenge with Serum [4]
1 | B1 | +++ (+++ = >2.5 relative activity over Rd2BB (SEQ ID NO: 10)) | +++ (+++ = >2.5 relative activity over Rd2BB (SEQ ID NO: 10)) | +++ (+++ = >2.5 relative activity over Rd2BB (SEQ ID NO: 10)) | +++ (+++ = >2.5 relative activity over Rd2BB (SEQ ID NO: 10))
2 | B2 | +++ (+++ = >2.5 relative activity over Rd2BB (SEQ ID NO: 10)) | +++ (+++ = >2.5 relative activity over Rd2BB (SEQ ID NO: 10)) | +++ (+++ = >2.5 relative activity over Rd2BB (SEQ ID NO: 10)) | +++ (+++ = >2.5 relative activity over Rd2BB (SEQ ID NO: 10))
3 | B3 | +++ (+++ = >2.5 relative activity over Rd2BB (SEQ ID NO: 10)) | +++ (+++ = >2.5 relative activity over Rd2BB (SEQ ID NO: 10)) | +++ (+++ = >2.5 relative activity over Rd2BB (SEQ ID NO: 10)) | +++ (+++ = >2.5 relative activity over Rd2BB (SEQ ID NO: 10))
4 | B4 | +++ (+++ = >2.5 relative activity over Rd2BB (SEQ ID NO: 10)) | +++ (+++ = >2.5 relative activity over Rd2BB (SEQ ID NO: 10)) | +++ (+++ = >2.5 relative activity over Rd2BB (SEQ ID NO: 10)) | +++ (+++ = >2.5 relative activity over Rd2BB (SEQ ID NO: 10))
5 | B5 | ++ (++ = 1.5 to 2.5 relative activity over Rd2BB (SEQ ID NO: 10)) | + (+ = 0.5 to 1.5 relative activity over Rd2BB (SEQ ID NO: 10)) | ++ (++ = 1.5 to 2.5 relative activity over Rd2BB (SEQ ID NO: 10)) | + (+ = 0.5 to 1.5 relative activity over Rd2BB (SEQ ID NO: 10))
6 | B6 | ++ (++ = 1.5 to 2.5 relative activity over Rd2BB (SEQ ID NO: 10)) | ++ (++ = 1.5 to 2.5 relative activity over Rd2BB (SEQ ID NO: 10)) | +++ (+++ = >2.5 relative activity over Rd2BB (SEQ ID NO: 10)) | + (+ = 0.5 to 1.5 relative activity over Rd2BB (SEQ ID NO: 10))
7 | B7 | +++ (+++ = >2.5 relative activity over Rd2BB (SEQ ID NO: 10)) | ++ (++ = 1.5 to 2.5 relative activity over Rd2BB (SEQ ID NO: 10)) | +++ (+++ = >2.5 relative activity over Rd2BB (SEQ ID NO: 10)) | ++ (++ = 1.5 to 2.5 relative activity over Rd2BB (SEQ ID NO: 10))
8 | B8 | + (+ = 0.5 to 1.5 relative activity over Rd2BB (SEQ ID NO: 10)) | + (+ = 0.5 to 1.5 relative activity over Rd2BB (SEQ ID NO: 10)) | + (+ = 0.5 to 1.5 relative activity over Rd2BB (SEQ ID NO: 10)) | + (+ = 0.5 to 1.5 relative activity over Rd2BB (SEQ ID NO: 10))
9 | B9 | + (+ = 0.5 to 1.5 relative activity over Rd2BB (SEQ ID NO: 10)) | + (+ = 0.5 to 1.5 relative activity over Rd2BB (SEQ ID NO: 10)) | ++ (++ = 1.5 to 2.5 relative activity over Rd2BB (SEQ ID NO: 10)) | + (+ = 0.5 to 1.5 relative activity over Rd2BB (SEQ ID NO: 10))
10 | B10 | +++ (+++ = >2.5 relative activity over Rd2BB (SEQ ID NO: 10)) | +++ (+++ = >2.5 relative activity over Rd2BB (SEQ ID NO: 10)) | +++ (+++ = >2.5 relative activity over Rd2BB (SEQ ID NO: 10)) | ++ (++ = 1.5 to 2.5 relative activity over Rd2BB (SEQ ID NO: 10))
11 | B11 | + (+ = 0.5 to 1.5 relative activity over Rd2BB (SEQ ID NO: 10)) | ++ (++ = 1.5 to 2.5 relative activity over Rd2BB (SEQ ID NO: 10)) | ++ (++ = 1.5 to 2.5 relative activity over Rd2BB (SEQ ID NO: 10)) | ++ (++ = 1.5 to 2.5 relative activity over Rd2BB (SEQ ID NO: 10))
12 | B12 | + (+ = 0.5 to 1.5 relative activity over Rd2BB (SEQ ID NO: 10)) | + (+ = 0.5 to 1.5 relative activity over Rd2BB (SEQ ID NO: 10)) | ++ (++ = 1.5 to 2.5 relative activity over Rd2BB (SEQ ID NO: 10)) | + (+ = 0.5 to 1.5 relative activity over Rd2BB (SEQ ID NO: 10))
